Among the data in US20160130575 are Kd values, retold here.

The target in the data set is alpha-thrombin (Homo sapiens) (UniProt P00734+P00734). The experiment in a line: flow. The following applies: bead-based fluorescence; measured here; sequence not given.

The Kd is the equilibrium constant for the complex coming apart. The low end stands for a tighter complex, the high end for a looser complex. For the substance Bock thrombin aptamer, the Kd stood at 2.1 nM.

Turning to Tasset thrombin aptamer, the Kd was determined as 10.4 nM.
